The source of these data is patent publication US20260125478A1 (VIELA BIO, published 2026).

For experiment [1], the target named is T1, human FcγRIIA 131H on blood cells of 131H/H donors (human, UniProt P12318 34-317).
T1 sequence (looked up): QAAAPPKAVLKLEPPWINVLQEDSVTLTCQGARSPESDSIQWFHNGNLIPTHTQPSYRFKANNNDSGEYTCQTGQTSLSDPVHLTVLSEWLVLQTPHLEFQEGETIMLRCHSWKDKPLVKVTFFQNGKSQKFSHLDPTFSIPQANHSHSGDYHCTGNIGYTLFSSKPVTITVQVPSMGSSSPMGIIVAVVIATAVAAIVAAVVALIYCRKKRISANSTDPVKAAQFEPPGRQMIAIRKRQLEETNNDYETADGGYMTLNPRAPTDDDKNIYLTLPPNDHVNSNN
The experiment in a line: cell-based or functional assay.

The target in experiment [2] is cynomolgus monkey FcγRIIA on blood cells (cynomolgus monkey). Kind of experiment: cell-based or functional assay.
The target in experiment [3] is T2, recombinant human FcγRI (ELISA coat, generated at MedImmune) (human, UniProt P12314 16-292, limits assumed).
T2 construct: also called CD64
Kind of experiment: ELISA on plate-coated FcγRI (2 µg/ml), detection with goat anti-human Fc-HRP. As for the experimental part: (§1) Plates were washed five times with 200 μl of wash buffer (PBS containing 0.1% Tween 20), blocked with blocking buffer containing 5% milk in PBS for 1 hour at room temperature, and washed five additional times with wash buffer. Three-fold serial dilutions of the test antibody or control antibody (R347-Tm) were added to wells in duplicate. Plates were incubated for 2 hours at room temperature, and washed five times with wash buffer. Binding of the antibodies to the FcγRs was detected by adding 50 μl of goat anti-human Fc-HRP (Jackson ImmunoResearch Laboratories, PA) to the wells and incubating for 1 hour at room temperature, washing 10 times, and adding 50 μl TMB substrate (Pierce Biotechnology, MA). The color reaction was stopped with 50 μl 0.2M […] and the absorbance was measured using a spectrophotometer (Molecular Devices, CA) at […].
Background: An ELISA detects its analyte on a solid surface through an enzyme-linked reagent.

Experiment [4] deals with T3, recombinant human FcγRIIIA-158F allotype (ELISA coat, generated at MedImmune) (human, UniProt P08637 17-208, limits assumed).
T3 construct: also called FcγRIII-158F allotype; CD16A 158F
Kind of experiment: ELISA on plate-coated FcγRIIIA-158F (2 µg/ml), detection with goat anti-human Fc-HRP. As for the experimental part:
as §1

For experiment [5], the target named is T4, human FcγRIIA on primary human cells (neutrophils; sorted CD14+ monocytes), allotype not stated (human, UniProt P12318 34-317).
T4 construct: whole, on cells; also called human FcγRIIA at the neutrophil surface; FcγRIIA-expressing neutrophils
T4 sequence (looked up): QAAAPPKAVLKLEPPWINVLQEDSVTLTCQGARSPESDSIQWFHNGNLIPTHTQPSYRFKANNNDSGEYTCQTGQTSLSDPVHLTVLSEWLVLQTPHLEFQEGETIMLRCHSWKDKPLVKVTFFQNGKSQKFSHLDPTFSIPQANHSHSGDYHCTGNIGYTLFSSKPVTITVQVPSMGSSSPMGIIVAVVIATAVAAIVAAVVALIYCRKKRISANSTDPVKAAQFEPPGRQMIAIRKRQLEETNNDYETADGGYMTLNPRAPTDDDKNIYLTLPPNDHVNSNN
The experiment in a line: flow cytometry, fluorescently labelled antibody on human neutrophils, 30 min at 4 °C, without IVIG. As for the experimental part: Human neutrophils were re-suspended in blocking buffer [phosphate-buffered saline (PBS) supplemented with 10% fetal bovine serum] and transferred to round-bottom 96-well culture plates (0.5×10^6 cells/well). […] After incubation, cells were washed with cold PBS and the mean fluorescence intensity (MFI) of cell-bound antibodies was assessed by flow cytometry using an LSRII (BD; Franklin Lakes, NJ). The EC₅₀ for binding was calculated using a non-linear fit equation in GraphPad Prism 6 software.
A general note: In flow cytometry, cells or beads pass a laser one at a time.

Experiment [6] deals with T5, Human CD32A 131R extracellular domain, 6xHis_Flag tagged (human, UniProt P12318 34-217).
T5 construct: also called Hu CD32A_131Arg; human CD32A_131 Arg
T5 chain: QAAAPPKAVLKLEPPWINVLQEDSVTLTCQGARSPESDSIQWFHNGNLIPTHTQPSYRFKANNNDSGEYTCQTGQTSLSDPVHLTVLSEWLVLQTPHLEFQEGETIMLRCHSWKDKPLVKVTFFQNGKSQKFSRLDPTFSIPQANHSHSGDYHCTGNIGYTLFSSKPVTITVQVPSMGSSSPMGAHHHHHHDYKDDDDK
The experiment in a line: Biacore; IgG1-TM captured on a Protein G chip, CD32A as analyte, 1:1 Langmuir fit, average of two experiments. Background: Surface plasmon resonance follows binding to a sensor surface in real time, without labels.

Experiment [7] deals with T6, Human CD32A 131H extracellular domain, 6xHis_Flag tagged (human, UniProt P12318 34-217).
T6 construct: Used unlabelled as the analyte in Biacore; also called Hu CD32A_131His
T6 sequence: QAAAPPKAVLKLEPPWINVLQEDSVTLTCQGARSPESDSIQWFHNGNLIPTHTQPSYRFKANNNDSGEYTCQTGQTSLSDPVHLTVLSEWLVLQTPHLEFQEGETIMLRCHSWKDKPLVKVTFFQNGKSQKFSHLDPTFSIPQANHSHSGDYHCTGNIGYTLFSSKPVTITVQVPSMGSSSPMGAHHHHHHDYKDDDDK
The experiment is described as above.

T2 sequence (P12314 16-292 limits assumed): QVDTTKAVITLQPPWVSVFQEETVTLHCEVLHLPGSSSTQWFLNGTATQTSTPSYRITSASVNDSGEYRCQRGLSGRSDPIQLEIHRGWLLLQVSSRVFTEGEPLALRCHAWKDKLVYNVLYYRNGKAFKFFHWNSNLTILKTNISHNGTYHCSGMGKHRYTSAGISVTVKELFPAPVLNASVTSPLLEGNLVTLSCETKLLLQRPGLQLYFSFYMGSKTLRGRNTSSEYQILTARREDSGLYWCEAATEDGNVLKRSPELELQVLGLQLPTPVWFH
T3 sequence (P08637 17-208 limits assumed): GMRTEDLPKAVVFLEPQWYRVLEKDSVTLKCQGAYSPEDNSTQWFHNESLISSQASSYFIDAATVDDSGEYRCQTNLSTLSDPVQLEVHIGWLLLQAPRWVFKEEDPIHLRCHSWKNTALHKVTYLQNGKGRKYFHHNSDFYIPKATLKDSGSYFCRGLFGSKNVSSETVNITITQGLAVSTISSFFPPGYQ

B1: 32LO0352 (MEDI9600) (antibody, human IgG1, V domains shown)
VH: QVQLVQSGAEVKKPGASVKVSCKASGYTFTNYGMNWVRQAPGQRLEWMGWLNTYTGESWYPDDFKGRVTITRDTSASTAYMELSSLRSEDTAVYYCARGDYGYDDPLDYWGQGTLVTVSS
VL: DIVMTQSPLSLPVTPGEPASISCRSSKSLLHTNQNTYLHWFLQKPGQSPQLLIYRMSVLASGVPDRFSGSGSGTDFTLKISRVEAEDVGVYYCMQHLEYPLTFGQGTKLEIK
notes: Fluorescently labelled in the neutrophil flow cytometry assay and Alexa 647 labelled for confocal microscopy; also called clone 32LO0352; CD32LO0352
What is called EC50 is the midpoint of the concentration-response curve. One may read the Kd as the constant that tells how readily two partners part at equilibrium. What is called koff is the first-order rate constant of dissociation. What is called kon is the second-order rate constant of association. On to B1, for which, in experiment [1], the “IC50 of the loss of surface FcγRIIA (M.F.I of IV.3-Alexa 647) on monocytes, whole blood, 2 h at 37 °C” value came out at 0.0809 nM. Moreover, the “IC50 of the loss of surface FcγRIIA (M.F.I of IV.3-Alexa 647) on cynomolgus monocytes, whole blood, 2 h at 37 °C” value in experiment [2] was found to be 1.09 nM. For the same molecule, the binding result in experiment [3] was “no binding (tested: about 15000 ng/ml)”. Besides, the binding result in experiment [4] was “no binding (tested: about 15000 ng/ml)”. Moreover, the concentration giving a half-maximal response (EC50) in experiment [5] is 0.0293 nM. In experiment [6], this molecule showed a Kd of 0.15 nM, a koff of 0.000735 s⁻¹ and a kon of 4.98e+06 M⁻¹ s⁻¹. In experiment [7], this molecule registered a Kd of 0.13 nM, a koff of 0.000337 s⁻¹ and a kon of 2.6e+06 M⁻¹ s⁻¹.
